Earlier results as cited in publication PMC5179943.

Target: LRP2/Megalin (Homo sapiens) (UniProt P98164)
Assay: solid phase binding assay

Sequence of UniProt P98164 (P98164 26-4423): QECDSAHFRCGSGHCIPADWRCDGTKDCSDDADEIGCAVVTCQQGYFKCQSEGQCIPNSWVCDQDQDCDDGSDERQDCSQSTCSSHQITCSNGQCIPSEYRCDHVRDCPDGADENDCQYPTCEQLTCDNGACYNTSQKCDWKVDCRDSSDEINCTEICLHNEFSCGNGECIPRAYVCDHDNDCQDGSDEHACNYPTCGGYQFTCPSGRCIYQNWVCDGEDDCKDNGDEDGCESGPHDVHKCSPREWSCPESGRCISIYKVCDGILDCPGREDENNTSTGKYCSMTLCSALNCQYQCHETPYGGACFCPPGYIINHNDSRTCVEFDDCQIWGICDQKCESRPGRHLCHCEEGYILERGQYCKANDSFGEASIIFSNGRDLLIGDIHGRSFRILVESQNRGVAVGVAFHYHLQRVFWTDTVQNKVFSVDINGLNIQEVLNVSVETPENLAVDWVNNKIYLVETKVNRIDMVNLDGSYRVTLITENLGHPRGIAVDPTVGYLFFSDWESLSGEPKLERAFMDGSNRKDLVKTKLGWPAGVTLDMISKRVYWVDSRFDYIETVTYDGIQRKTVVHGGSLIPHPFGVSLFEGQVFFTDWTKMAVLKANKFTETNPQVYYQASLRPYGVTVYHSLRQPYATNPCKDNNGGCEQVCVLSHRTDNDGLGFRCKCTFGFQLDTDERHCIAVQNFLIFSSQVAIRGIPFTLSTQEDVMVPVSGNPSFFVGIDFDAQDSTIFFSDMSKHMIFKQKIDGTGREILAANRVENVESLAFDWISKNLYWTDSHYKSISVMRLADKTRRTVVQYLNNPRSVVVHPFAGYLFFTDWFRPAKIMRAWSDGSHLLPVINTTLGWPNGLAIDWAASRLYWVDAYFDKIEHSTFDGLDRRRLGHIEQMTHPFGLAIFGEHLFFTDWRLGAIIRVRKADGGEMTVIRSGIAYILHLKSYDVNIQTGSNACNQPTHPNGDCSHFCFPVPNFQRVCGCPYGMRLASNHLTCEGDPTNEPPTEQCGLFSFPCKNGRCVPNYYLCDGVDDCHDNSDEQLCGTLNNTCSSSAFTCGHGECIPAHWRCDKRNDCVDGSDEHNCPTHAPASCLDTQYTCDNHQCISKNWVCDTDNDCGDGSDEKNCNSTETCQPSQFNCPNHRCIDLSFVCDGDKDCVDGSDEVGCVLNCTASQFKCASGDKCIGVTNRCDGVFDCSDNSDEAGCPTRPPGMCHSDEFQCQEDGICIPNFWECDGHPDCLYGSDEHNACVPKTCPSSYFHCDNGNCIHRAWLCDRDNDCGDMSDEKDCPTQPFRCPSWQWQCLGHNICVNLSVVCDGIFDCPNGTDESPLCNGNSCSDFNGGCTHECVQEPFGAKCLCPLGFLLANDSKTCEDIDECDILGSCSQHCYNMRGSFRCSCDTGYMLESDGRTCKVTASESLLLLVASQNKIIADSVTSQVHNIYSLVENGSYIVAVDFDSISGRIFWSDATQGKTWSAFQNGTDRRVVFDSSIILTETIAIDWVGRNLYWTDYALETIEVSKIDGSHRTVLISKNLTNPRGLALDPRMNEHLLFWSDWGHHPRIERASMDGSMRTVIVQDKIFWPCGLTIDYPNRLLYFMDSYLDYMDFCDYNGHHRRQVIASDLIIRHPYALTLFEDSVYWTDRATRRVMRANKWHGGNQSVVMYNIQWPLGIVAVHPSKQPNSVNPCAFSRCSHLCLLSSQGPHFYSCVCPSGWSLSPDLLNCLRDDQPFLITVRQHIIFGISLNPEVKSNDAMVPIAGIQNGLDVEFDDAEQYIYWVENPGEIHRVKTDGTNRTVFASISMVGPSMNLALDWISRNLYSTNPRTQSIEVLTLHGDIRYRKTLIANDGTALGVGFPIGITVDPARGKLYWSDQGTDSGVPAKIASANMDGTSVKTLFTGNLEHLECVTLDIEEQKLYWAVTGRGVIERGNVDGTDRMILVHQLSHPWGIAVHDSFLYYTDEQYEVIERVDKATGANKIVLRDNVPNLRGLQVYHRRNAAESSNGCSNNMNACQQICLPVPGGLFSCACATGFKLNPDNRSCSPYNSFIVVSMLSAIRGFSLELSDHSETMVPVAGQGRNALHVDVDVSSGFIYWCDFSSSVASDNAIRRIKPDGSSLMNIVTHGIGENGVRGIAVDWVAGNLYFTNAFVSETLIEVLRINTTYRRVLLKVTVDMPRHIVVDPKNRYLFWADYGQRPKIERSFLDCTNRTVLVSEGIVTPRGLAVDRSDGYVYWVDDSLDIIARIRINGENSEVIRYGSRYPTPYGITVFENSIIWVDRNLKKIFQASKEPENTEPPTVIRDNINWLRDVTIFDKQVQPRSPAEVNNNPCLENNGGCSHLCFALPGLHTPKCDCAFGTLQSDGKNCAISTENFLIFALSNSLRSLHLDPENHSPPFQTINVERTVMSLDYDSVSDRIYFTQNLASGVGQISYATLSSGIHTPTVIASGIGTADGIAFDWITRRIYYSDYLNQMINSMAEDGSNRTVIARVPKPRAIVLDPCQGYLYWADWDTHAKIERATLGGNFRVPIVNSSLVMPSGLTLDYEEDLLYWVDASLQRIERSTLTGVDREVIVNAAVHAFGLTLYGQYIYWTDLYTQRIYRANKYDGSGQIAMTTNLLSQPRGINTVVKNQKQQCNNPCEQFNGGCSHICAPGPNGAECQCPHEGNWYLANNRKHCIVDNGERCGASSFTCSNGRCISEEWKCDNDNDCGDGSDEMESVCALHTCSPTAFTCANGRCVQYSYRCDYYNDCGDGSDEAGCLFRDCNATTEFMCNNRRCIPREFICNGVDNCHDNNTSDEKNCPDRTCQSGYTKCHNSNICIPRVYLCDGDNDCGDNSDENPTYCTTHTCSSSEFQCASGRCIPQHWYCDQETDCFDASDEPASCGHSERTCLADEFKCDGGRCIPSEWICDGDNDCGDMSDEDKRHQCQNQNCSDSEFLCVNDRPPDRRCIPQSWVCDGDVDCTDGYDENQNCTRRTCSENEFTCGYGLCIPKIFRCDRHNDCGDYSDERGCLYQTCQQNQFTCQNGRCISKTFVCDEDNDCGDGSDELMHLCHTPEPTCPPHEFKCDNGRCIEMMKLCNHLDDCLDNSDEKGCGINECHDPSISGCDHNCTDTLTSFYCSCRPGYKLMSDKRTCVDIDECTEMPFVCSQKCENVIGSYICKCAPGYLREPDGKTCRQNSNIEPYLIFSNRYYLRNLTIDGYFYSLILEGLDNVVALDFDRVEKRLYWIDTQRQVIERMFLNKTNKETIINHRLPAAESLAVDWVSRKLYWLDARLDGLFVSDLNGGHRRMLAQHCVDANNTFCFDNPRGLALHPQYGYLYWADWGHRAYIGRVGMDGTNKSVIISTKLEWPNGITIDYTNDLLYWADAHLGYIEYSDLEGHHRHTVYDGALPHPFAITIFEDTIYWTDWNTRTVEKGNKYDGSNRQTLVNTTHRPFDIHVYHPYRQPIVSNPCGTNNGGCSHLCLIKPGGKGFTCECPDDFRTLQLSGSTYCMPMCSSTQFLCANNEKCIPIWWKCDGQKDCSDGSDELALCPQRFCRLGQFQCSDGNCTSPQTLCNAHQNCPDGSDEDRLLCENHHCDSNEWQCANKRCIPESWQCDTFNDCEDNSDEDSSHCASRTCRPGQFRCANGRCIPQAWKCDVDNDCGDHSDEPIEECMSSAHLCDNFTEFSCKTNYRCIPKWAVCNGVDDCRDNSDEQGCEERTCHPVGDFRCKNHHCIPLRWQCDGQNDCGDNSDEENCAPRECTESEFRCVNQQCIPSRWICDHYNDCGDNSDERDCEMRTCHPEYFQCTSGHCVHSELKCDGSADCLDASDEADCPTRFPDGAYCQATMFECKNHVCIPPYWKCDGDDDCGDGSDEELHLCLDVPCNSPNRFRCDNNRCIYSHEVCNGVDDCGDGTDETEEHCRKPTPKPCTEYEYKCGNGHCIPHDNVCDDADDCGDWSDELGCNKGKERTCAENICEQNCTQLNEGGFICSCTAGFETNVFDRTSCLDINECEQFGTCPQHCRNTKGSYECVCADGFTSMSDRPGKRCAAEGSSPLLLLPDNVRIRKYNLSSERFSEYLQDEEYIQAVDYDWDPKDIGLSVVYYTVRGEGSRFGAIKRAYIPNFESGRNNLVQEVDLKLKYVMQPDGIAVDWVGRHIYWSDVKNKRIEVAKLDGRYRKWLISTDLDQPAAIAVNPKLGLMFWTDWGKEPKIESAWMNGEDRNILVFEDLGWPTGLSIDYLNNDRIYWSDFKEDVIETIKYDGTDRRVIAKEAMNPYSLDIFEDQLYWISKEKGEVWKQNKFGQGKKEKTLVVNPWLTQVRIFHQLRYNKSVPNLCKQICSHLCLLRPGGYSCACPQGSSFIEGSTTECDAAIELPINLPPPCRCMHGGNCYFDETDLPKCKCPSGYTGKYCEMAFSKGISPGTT

Kd: 14.2 nM
Substance: Clusterin (from UniProt P10909)
